# According to patent US20040131609A1 (published 2004):
# Changes are numbered by the printed parent chain.
# B1: clone 3 (PFFF) (Fab, V domains shown)
# VH: QVTLRESGPALVKPTQTLTLTCTFSGFSLSTPGMSVGWIRQPPGKALEWLADIWWDDKKDYNPSLKSRLTISKDTSKNQVVLKVTNMDPADTATYYCARSMITNFYFDVWGQGTTVTVSS
# VL: DIQMTQSPSTLSASVGDRVTITCSASSSVGYMHWYQQKPGKAPKLLIYDTFKLASGVPSRFSGSGSGTEFTLTISSLQPDDFATYYCFQGSFYPFTFGGGTKVEIK
# B2: clone 4 (PFFY) (antibody, V domains shown)
# VH: B1 VH
# VL: B1 VL with F92Y
# B3: clone 5 (PFFW) (antibody, V domains shown)
# VH: B1 VH
# VL: B1 VL with F92W
# B4: clone 6 (PFYF) (antibody, V domains shown)
# VH: B1 VH
# VL: B1 VL with F51Y
# B5: clone 7 (PFFG) (antibody, V domains shown)
# VH: B1 VH
# VL: B1 VL with F92G
# B6: clone 9 (PFSW) (antibody, V domains shown)
# VH: B1 VH
# VL: B1 VL with F51S, F92W
# B7: clone 10 (PFSF) (antibody, V domains shown)
# VH: B1 VH
# VL: B1 VL with F51S
# B8: clone 11 (PWFW) (antibody, V domains shown)
# VH: B1 VH with F105W
# VL: B1 VL with F92W
# B9: clone 12 (PWFF) (antibody, V domains shown)
# VH: B1 VH with F105W
# VL: B1 VL
# B10: clone 13 (SFFF) (antibody, V domains shown)
# VH: B1 VH with P32S
# VL: B1 VL
# B11: clone 14 (SFFW) (antibody, V domains shown)
# VH: B1 VH with P32S
# VL: B1 VL with F92W
# B12: clone 15 (AFSG) (antibody, V domains shown)
# VH: B1 VH with P32A
# VL: B1 VL with F51S, F92G
# B13: clone 16 (PFSG) (antibody, V domains shown)
# VH: B1 VH
# VL: B1 VL with F51S, F92G
# B14: clone 17 (PWSW) (antibody, V domains shown)
# VH: B1 VH with F105W
# VL: B1 VL with F51S, F92W
# B15: clone 18 (SFFG) (antibody, V domains shown)
# VH: B1 VH with P32S
# VL: B1 VL with F92G
# B16: clone 19 (SFSW) (antibody, V domains shown)
# VH: B1 VH with P32S
# VL: B1 VL with F51S, F92W
# B17: clone 20 (SFSF) (antibody, V domains shown)
# VH: B1 VH with P32S
# VL: B1 VL with F51S
# B18: clone 21 (SWYF) (antibody, V domains shown)
# VH: B1 VH with P32S, F105W
# VL: B1 VL with F51Y
# B19: reference antibody IX-493 (SWSG) (Fab, V domains shown)
# VH: B1 VH with P32S, F105W
# VL: B1 VL with F51S, F92G
# notes: also called Basic; basic antibody
# B20: clone 1 (AFSF) (Fab, V domains shown)
# VH: B1 VH with P32A
# VL: B1 VL with F51S
# B21: clone 2 (AFFG) (Fab, V domains shown)
# VH: B1 VH with P32A
# VL: B1 VL with F92G
# Target: T1, RSV F antigen (respiratory syncytial virus (RSV), UniProt P03420 26-524)
# T1 construct: also called F antigen of RSV; RSV F protein
# Assay: antibody titration ELISA on 500 ng RSV F antigen; qualitative score from titration curves
# T1 sequence (P03420 26-524): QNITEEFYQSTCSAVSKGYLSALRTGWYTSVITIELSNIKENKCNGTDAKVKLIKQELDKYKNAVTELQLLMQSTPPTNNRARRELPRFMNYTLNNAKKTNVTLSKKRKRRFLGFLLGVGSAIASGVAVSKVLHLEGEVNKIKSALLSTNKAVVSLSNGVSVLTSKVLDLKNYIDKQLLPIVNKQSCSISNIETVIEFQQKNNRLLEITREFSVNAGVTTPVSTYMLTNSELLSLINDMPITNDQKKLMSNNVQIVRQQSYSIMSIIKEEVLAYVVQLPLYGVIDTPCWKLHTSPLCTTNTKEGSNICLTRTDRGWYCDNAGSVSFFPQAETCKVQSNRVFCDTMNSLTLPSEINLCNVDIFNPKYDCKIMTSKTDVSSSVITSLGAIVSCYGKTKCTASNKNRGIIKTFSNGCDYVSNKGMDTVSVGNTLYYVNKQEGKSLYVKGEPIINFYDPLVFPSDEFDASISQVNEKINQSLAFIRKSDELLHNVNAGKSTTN
row,Binder,Ag Score
1,B1,4 arbitrary score (0-4)
2,B2,3.5 arbitrary score (0-4)
3,B3,3.5 arbitrary score (0-4)
4,B4,3.5 arbitrary score (0-4)
5,B5,3 arbitrary score (0-4)
6,B6,3 arbitrary score (0-4)
7,B7,3 arbitrary score (0-4)
8,B8,3 arbitrary score (0-4)
9,B9,2.5 arbitrary score (0-4)
10,B10,2.5 arbitrary score (0-4)
11,B11,2.5 arbitrary score (0-4)
12,B12,2.5 arbitrary score (0-4)
13,B13,2 arbitrary score (0-4)
14,B14,2 arbitrary score (0-4)
15,B15,2 arbitrary score (0-4)
16,B16,2 arbitrary score (0-4)
17,B17,2 arbitrary score (0-4)
18,B18,2 arbitrary score (0-4)
19,B19,0.1 arbitrary score (0-4)
20,B20,4 arbitrary score (0-4)
21,B21,4 arbitrary score (0-4)
